Results published in patent publication US8986682B2, “Method to increase the absorption of unsaturated fatty acids by human infants” (Swedish Orphan Biovitrum AB (publ), priority 2010, dated 2015).
Values joined by “and” are separate entries in the source; they are usually repeats but may differ in a detail not shown here. Equal values may be shown once. Marks after values point to notes of the source that are not given here.

System: preterm infants born before week 32 of gestational age
Experiment: Coefficient of fat absorption (CFA), fat balance of food and stool by gas chromatography, studies BVT.BSSL-020/-021
Type: in vivo, human
Conditions: PP
Procedure: Patients were randomized to infant formula/pasteurized breast milk supplemented with rhBSSL at a final concentration of 0.15 g/L, or to infant formula/pasteurized breast milk “supplemented” with sterile water for injection (as placebo) for the first 7 days. After a washout period of 2 days, the patient was “crossed over” to the other treatment regimen during a second 7-day treatment period. Collection of feces samples for CFA assessment were performed during the last 3 days (72 hours) of each treatment period.
The collection of feces for the determination of CFA was performed over a period corresponding to the fat, i.e., formula or milk, ingestion during 72 hours toward the end of each treatment period. Diapers supplied to each site were used for feces collection. During the two treatment periods, a carmine red tracer dye was given as a marker together with a meal (approximately at noon) on Day 4 and Day 13, respectively, and collection of stool commenced with the appearance of the first carmine red marker in the stool. The stool containing the first marker was collected and the date and time of the first stool collected was recorded on the CRF. At 72 hours following administration of the first red marker, the second carmine marker was given, and stool collection continued until the second carmine marker appeared. The stool containing the second marker was not collected, but the date and time of the appearance of the second marker was recorded on the CRF. Diapers were weighed before placement and after removal and the difference in weight was recorded on the CRF. The times of each collection and the elapsed duration of the entire collection period was also recorded on the CRF. The use of ointments for the treatment of skin irritation was prohibited during the stool collection period. Diapers were to be changed frequently during the collection period to keep the skin dry. Patients with skin rash severity leading to discontinuation of the stool collection were to be withdrawn from the study. Specific collection methods were provided in a separate laboratory manual. If applicable, vomit from the stool collection periods of both treatment periods was weighed. A small cloth/linen was weighed and placed under the head of each infant. When the cloth/linen was soiled with vomit, it was removed and re-weighed. If an additional cloth was used to remove vomit from the infant, that cloth was also weighed before and after use. The weight of vomit (total weight minus the weight of the cloth/linen) was recorded on the CRF. All other feed losses, e.g., formula or milk left in bottle, were measured and the amount accounted for in the calculation of the volume of formula consumed at each feeding.
Feces samples, the formula (study 020) and the milk aliquots (study 021) were analyzed by a central laboratory. Individual fatty acids, including the long-chain polyunsaturated fatty acids DHA and AA, were quantified in feces and feed by a gas chromatographic method following extraction by the Folch method. In both studies, the Omegawax 250 column (Supelco) was used for separation of the fatty acids. However, due to co-elution of DHA with nervonic acid (C24:1), which was only present in the breast milk, samples from patients of the per-protocol analysis set from study 021 were also analyzed using a SP-2380 column (Supelco) in order to quantify DHA for those samples from study 021. […] Total lipids were calculated as the sum of the individual fatty acids. (See Section 7.5.1). The same analytical principle was used to determine lipids in each of the batches of formula and aliquots of breast milk used in the study. […]

[1] = BVT.BSSL-020 (infant formula), 72-hour collection period
[2] = BVT.BSSL-021 (pasteurized breast milk)

B1: rhBSSL: recombinant human bile-salt-stimulated lipase, SEQ ID. NO. 1, expressed from recombinant CHO cells; used in both clinical trials (protein, listed as Homo sapiens)
chain: AKLGAVYTEGGFVEGVNKKLGLLGDSVDIFKGIPFAAPTKALENPQPHPGWQGTLKAKNFKKRCLQATITQDSTYGDEDCLYLNIWVPQGRKQVSRDLPVMIWIYGGAFLMGSGHGANFLNNYLYDGEEIATRGNVIVVTFNYRVGPLGFLSTGDANLPGNYGLRDQHMAIAWVKRNIAAFGGDPNNITLFGESAGGASVSLQTLSPYNKGLIRRAISQSGVALSPWVIQKNPLFWAKKVAEKVGCPVGDAARMAQCLKVTDPRALTLAYKVPLAGLEYPMLHYVGFVPVIDGDFIPADPINLYANAADIDYIAGTNNMDGHIFASIDMPAINKGNKKVTEEDFYKLVSEFTITKGLRGAKTTFDVYTESWAQDPSQENKKKTVVDFETDVLFLVPTEIALAQHRANAKSAKTYAYLFSHPSRMPVYPKWVGADHADDIQYVFGKPFATPTGYRPQDRTVSKAMIAYWTNFAKTGDPNMGDSAVPTHWEPYTTENSGYLEITKKMGSSSMKRSLRTNFLRYWTLTYLALPTVTDQEATPVPPTGDSEATPVPPTGDSETAPVPPTGDSGAPPVPPTGDSGAPPVPPTGDSGAPPVPPTGDSGAPPVPPTGDSGAPPVPPTGDSGAPPVPPTGDSGAPPVPPTGDAGPPPVPPTGDSGAPPVPPTGDSGAPPVTPTGDSETAPVPPTGDSGAPPVPPTGDSEAAPVPPTDDSKEAQMPAVIRF
- CFA (overall), LS Mean (BVT.BSSL-020 (infant formula)): 69.46%
- CFA (overall), LS Mean Difference (rhBSSL − Placebo) (BVT.BSSL-020 (infant formula)): 2.08%
- CFA (overall), Maximum (BVT.BSSL-020 (infant formula)): 89.0%
- CFA (overall), Mean (SD) (BVT.BSSL-020 (infant formula)): 69.55 (14.452) %
- CFA (overall), Median (BVT.BSSL-020 (infant formula)): 70.99%
- CFA (overall), Minimum (BVT.BSSL-020 (infant formula)): 36.8%
- CFA for C12:0 (BVT.BSSL-020 (infant formula)): 89.70%
- CFA for C12:0, Difference (rhBSSL − Placebo) (BVT.BSSL-020 (infant formula)): 1.18%
- CFA for C14:0 (BVT.BSSL-020 (infant formula)): 76.56%
- CFA for C14:0, Difference (rhBSSL − Placebo) (BVT.BSSL-020 (infant formula)): 3.19%
- CFA for C16:0 (BVT.BSSL-020 (infant formula)): 46.95%
- CFA for C16:0, Difference (rhBSSL − Placebo) (BVT.BSSL-020 (infant formula)): 0.45%
- CFA for C18:0 (BVT.BSSL-020 (infant formula)): 42.20%
- CFA for C18:0, Difference (rhBSSL − Placebo) (BVT.BSSL-020 (infant formula)): −1.10%
- CFA for C18:1 (BVT.BSSL-020 (infant formula)): 76.24%
- CFA for C18:1, Difference (rhBSSL − Placebo) (BVT.BSSL-020 (infant formula)): 2.37%
- CFA for C18:2 n-6 (BVT.BSSL-020 (infant formula)): 83.91%
- CFA for C18:2 n-6, Difference (rhBSSL − Placebo) (BVT.BSSL-020 (infant formula)): 4.99%
- CFA for C18:3 n-3 (BVT.BSSL-020 (infant formula)): 87.79%
- CFA for C18:3 n-3, Difference (rhBSSL − Placebo) (BVT.BSSL-020 (infant formula)): 4.42%
- CFA for C20:4 n-6 (AA) (BVT.BSSL-020 (infant formula)): 82.96%
- CFA for C20:4 n-6 (AA), Difference (rhBSSL − Placebo) (BVT.BSSL-020 (infant formula)): 7.14%
- CFA for C22:6 n-3 (DHA) (BVT.BSSL-020 (infant formula)): 81.15%
- CFA for C22:6 n-3 (DHA), Difference (rhBSSL − Placebo) (BVT.BSSL-020 (infant formula)): 6.85%
- Total Amount of Fat in Stool, Maximum [1]: 15.0 g
- Total Amount of Fat in Stool, Mean (SD) [1]: 8.53 g and 8.53 (3.416) g
- Total Amount of Fat in Stool, Median [1]: 8.63 g
- Total Amount of Fat in Stool, Minimum [1]: 3.2 g
- Coefficient of absorption of the sum of all LCPUFAs, LS mean (BVT.BSSL-020 Formula): 82.2%
- Coefficient of absorption of the sum of all LCPUFAs, LS mean difference (rhBSSL-Placebo) (BVT.BSSL-020 Formula): 7.01%
- Coefficient of absorption of the sum of all polyunsaturated fatty acids, LS mean (BVT.BSSL-020 Formula): 84.0%
- Coefficient of absorption of the sum of all polyunsaturated fatty acids, LS mean difference (rhBSSL-Placebo) (BVT.BSSL-020 Formula): 5.05%
- Coefficient of absorption of the sum of all saturated fatty acids, LS mean (BVT.BSSL-020 Formula): 61.4%
- Coefficient of absorption of the sum of all saturated fatty acids, LS mean difference (rhBSSL-Placebo) (BVT.BSSL-020 Formula): 0.08%
- Coefficient of absorption of the sum of all unsaturated fatty acids, LS mean (BVT.BSSL-020 Formula): 78.8%
- Coefficient of absorption of the sum of all unsaturated fatty acids, LS mean difference (rhBSSL-Placebo) (BVT.BSSL-020 Formula): 3.25%
- Coefficient of absorption of the sum of all LCPUFAs, LS mean (BVT.BSSL-020 and 021 Combined): 76.1%
- Coefficient of absorption of the sum of all LCPUFAs, LS mean difference (rhBSSL-Placebo) (BVT.BSSL-020 and 021 Combined): 7.33%
- Coefficient of absorption of the sum of all polyunsaturated fatty acids, LS mean (BVT.BSSL-020 and 021 Combined): 77.3%
- Coefficient of absorption of the sum of all polyunsaturated fatty acids, LS mean difference (rhBSSL-Placebo) (BVT.BSSL-020 and 021 Combined): 5.82%
- Coefficient of absorption of the sum of all saturated fatty acids, LS mean (BVT.BSSL-020 and 021 Combined): 63.8%
- Coefficient of absorption of the sum of all saturated fatty acids, LS mean difference (rhBSSL-Placebo) (BVT.BSSL-020 and 021 Combined): 2.25%
- Coefficient of absorption of the sum of all unsaturated fatty acids, LS mean (BVT.BSSL-020 and 021 Combined): 74.7%
- Coefficient of absorption of the sum of all unsaturated fatty acids, LS mean difference (rhBSSL-Placebo) (BVT.BSSL-020 and 021 Combined): 4.22%
- CFA (overall), LS Mean [2]: 68.56%
- CFA (overall), LS Mean Difference (rhBSSL − Placebo) [2]: 4.86%
- CFA (overall), Maximum [2]: 93.2%
- CFA (overall), Mean (SD) [2]: 68.46 (15.333) %
- CFA (overall), Median [2]: 75.41%
- CFA (overall), Minimum [2]: 31.2%
- CFA for C12:0 [2]: 87.94%
- CFA for C12:0, Difference (rhBSSL − Placebo) [2]: 3.50%
- CFA for C14:0 [2]: 75.49%
- CFA for C14:0, Difference (rhBSSL − Placebo) [2]: 5.94* %
- CFA for C16:0 [2]: 63.88%
- CFA for C16:0, Difference (rhBSSL − Placebo) [2]: 4.46%
- CFA for C16:1 [2]: 96.24%
- CFA for C16:1, Difference (rhBSSL − Placebo) [2]: 0.45%
- CFA for C18:0 [2]: 46.11%
- CFA for C18:0, Difference (rhBSSL − Placebo) [2]: 3.63%
- CFA for C18:1 [2]: 71.01%
- CFA for C18:1, Difference (rhBSSL − Placebo) [2]: 4.77%
- CFA for C18:2 n-6 [2]: 71.26%
- CFA for C18:2 n-6, Difference (rhBSSL − Placebo) [2]: 6.98* %
- CFA for C18:3 n-3 [2]: 64.39%
- CFA for C18:3 n-3, Difference (rhBSSL − Placebo) [2]: 2.04%
- CFA for C18:3 n-6 [2]: 63.94%
- CFA for C18:3 n-6, Difference (rhBSSL − Placebo) [2]: 5.82%
- CFA for C20:1 [2]: 52.09%
- CFA for C20:1, Difference (rhBSSL − Placebo) [2]: 8.53%
- CFA for C20:2 n-6 [2]: 53.09%
- CFA for C20:2 n-6, Difference (rhBSSL − Placebo) [2]: 8.37* %
- CFA for C20:3 n-6 (sum of C20:3 n-6 and C20:3 n-3) [2]: 67.39§ %
